This note sets out measurements from the DeepSol protein solubility set.

A short description of this data set: soluble on expression in E. coli; label from the status in PepcDB or PDB records.
Consider “MRYIAGIDIGNSSTEVALATLDEAGALTITHSALAETTGIKGTLRNVFGIQEALALVARGAGIAVSDISLIRINEATPVIGDVAMETITETIITESTMIGHNPKTPGGAGLGTGITITPQELLTRPADAPYILVVSSAFDFADIASVINASLRAGYQITGVILQRDDGVLVSNRLEKPLPIVDEVLYIDRIPLGMLAAIEVAVPGKVIETLSNPYGIATVFNLSPEETKNIVPMARALIGNRSAVVVKTPSGDVKARAIPAGNLELLAQGRSVRVDVAAGAEAIMKAVDGCGRLDNVTGESGTNIGGMLEHVRQTMAELTNKPSSEIFIQDLLAVDTSVPVSVTGGLAGEFSLEQAVGIASMVKSDRLQMAMIAREIEQKLNIDVQIGGAEAEAAILGALTTPGTTRPLAILDLGAGSTDASIINPKGDIIATHLAGAGDMVTMIIARELGLEDRYLAEEIKKYPLAKVESLFHLRHEDGSVQFFSTPLPPAVFARVCVVKADELVPLPGDLALEKVRAIRRSAKERVFVTNALRALRQVSPTGNIRDIPFVVLVGGSSLDFEVPQLVTDALAHYRLVAGRGNIRGSEGPRNAVATGLILSWHKEFAHER”, for which the “soluble on expression in E. coli” value is listed as “soluble”.

As for “MRYVVGHKNPDTDSIASAIVLAYFLDCYPARLGDINPETEFVLRKFGVMEPELIESAKGKEIILVDHSEKSQSFDDLEEGKLIAIIDHHKVGLTTTEPILYYAKPVGSTATVIAELYFKDAIDLIGGKKKELKPDLAGLLLSAIISDTVLFKSPTTTDLDKEMAKKLAEIAGISNIEEFGMEILKAKSVVGKLKPEEIINMDFKNFDFNGKKVGIGQVEVIDVSEVESKKEDIYKLLEEKLKNEGYDLIVFLITDIMKEGSEALVVGNKEMFEKAFNVKVEGNSVFLEGVMSRKKQVVPPLERAYNG”, the “soluble on expression in E. coli” value was “soluble”. For “MSADTLQIAYSPCPNDTFVFDALAHGRVPGAPALDVTFADIDITNGMAERGELDVLKVSYAVLPYVLDDWALLPCGGALGRGCGPLVLTREADADLRGRTVAVPSETSTAYLLFRLWAADTVPGGVGEIVVMPFHEIMPAVRDGKVDAGLVIHEARFTYQNYGLHKLADMGEHWEHTTGLPIPLGAIIARRSLGAPALTRLADAVRASVRAAWDDPEASRPYVMEHAQEMDPAVADQHIGLYVNEFTADLGEDGYAAIRGLLTRAAAEGLVPALGPDALAFP”, the “soluble on expression in E. coli” value is “not soluble”. With “MSADVVENGRAYNALWWAKVQSGGPQKVPADTPAVAGLARAVEPDGSGLWMLPTVPDGAGHGVLEELGAPPVAVEMPNETARVLAICVACCWTDRDASTWPGVTGTLAQVKAVYAGMRGRAEQSSDLTLIIGSLRRLHATHWLLWNEKAGEVRLGPRTITWSPSDLATLREICRVLPDPPPAVLVARAPEPTPDPLPVAASADGPAPSSDQAAASALPSPAAPPADGAPGPTPDPSPSLTSTSPAPSAPARSTEQSG”, the “soluble on expression in E. coli” value is reported as “not soluble”. As for “MSAEEQDTRSGGIQVIARAAELLRVLQAHPGGLSQAEIGERVGMARSTVSRILNALEDEGLVASRGARGPYRLGPEITRMATTVRLGVVTEMHPFLTELSRELDETVDLSILDGDRADVVDQVVPPQRLRAVSAVGESFPLYCCANGKALLAALPPERQARALPSRLAPLTANTITDRAALRDELNRIRVDGVAYDREEQTEGICAVGAVLRGVSVELVAVSVPVPAQRFYGREAELAGALLAWVSKVDAWFNGTEDRK”, the entry is “soluble”. For “MSAEPHIVIIGGGFSGAAVAIELLRLAPNGVRVTLLEPRQSPGAGVAYSTAEPTHRINVPAARMQLAGDEEGAFDHWYRHQPAFAVDVQALRPDGSVYPQRGQFGRYVAQRFADAAASSGGRLRHLRDRALAFHQGTVTTDGGLQFKADLLVLAISHPPPSLPPQAEAWRHHPALIANPWQPGALDAIAPHARVAVMGTGLTMADTVVTLDRLGH”, the “soluble on expression in E. coli” value is “not soluble”. With “MSAGKTGNHLMISDSKLLASAAWDAQSLNELKAKAGEDPAANIRPVARQVEGMFVQMMLKSMRDALPKDGLFSSEHTRLYTSMYDQQIAQQMTAGKGLGLAEMMVKQMTPEQPLPEEPTPAAPMKFPLETVVRYQNQALSQLVQKAVPRNYDDSLPGNSKAFLAQLSLPAQLASQQSGVPHHLILAQAALESGWGQRQIRRENGEPSYNLFGVKASGNWKGPVTEITTTEYENGEAKKVKAKFRVYSSYLEALSDYVGLLTRNPRYAAVTTAASAEQGAQALQDAGYATDPHYARKLTNMIQQMKSISDKVSKTYSMNIDNLF”, the “soluble on expression in E. coli” value is “soluble”. Regarding “MSAIEVTNLVKKFHGQTVLHGIDLEVKPGEVVAIIGPSGSGKTTLLRCINLLEQPEAGTIKVGDIIIDTARPFSQQKGLIRQLRQHVGFVFQSFNLFPHRTVLENIIEGPVIVKGEPKAEATALARELLAKVGLAGKESRYPRRLSGGQQQRVAIARALAMRPEVILFDEPTSALDPELVGEVLNTIRQLAQEKRTMVIVTHEMSFARDVADRAIFMDQGQIVEQGPAKTLFADPQHPRTRQFLEKFLVK”, the “soluble on expression in E. coli” value was “not soluble”.

Take “MSAISPFVAIRRDLHQIPELGFQELKTQQYLLRYIQSLPQERLQVRTWKTGIFVKVNGTSPRKTIGYRADMDGLPIREETGLPYRSKHEGHMHACGHDVHMSIALGVLTHFAHHPLEDDLLFVFQPAEEGPGGAKPMLESDIMREWKPDMIVALHIAPEYPVGTIATKEGLLFANTSELFIDLKGRGGHAAFPHLANDMVVAACALVTQLQSIVARNVDPLDSAVITIGKIAGGTVQNVIAEHARLEGTIRTLSTAAMQKVKRRIEAIVHGIEVAYECETSIDYGAMYHEVYNDPDLTAEFMKFAKAHGGVNVIRCKEAMTGEDFGYMLAEIPGFMFWLGVDSPYGLHHAKLAPNEEAIDRAIAFLIDYFSWKGNAE”: the “soluble on expression in E. coli” value is reported as “not soluble”. Turning to “MSAKFQQETLKSRFAQAKVLVVGDVMLDRYWFGDVSRISPEAPVPVAKIGRIDQRAGGAANVARNIASLGGRAGLLSVTGNDEAADALDALMVQDGVASYLMRDKQIATTVKLRVVARNQQLIRLDFEEHPNCEVLEQIKQKYREILPEYDAIIFSDYGKGGLSHISDMIDWAKHAGKTVLIDPKGDDYEKYVGATLITPNRAELKEVVGSWKNESELTEKAQNLRRHLDLTAVLLTRSEEGMTLFSEGEPIYQPTRAQEVYDVSGAGDTVIAGMGLGLAAGCTMPEAMYLANTAAGVVVAKLGTAVCSFAELIKALSGQSTM”, the “soluble on expression in E. coli” value was “not soluble”. “MSALEWYAHKSLGDGIFWIQERFYESGNRANIWLVRGSEQDVVIDTGLGLRSLPEYLYSSGLLQDREAKEDAARRPLLAVATHVHFDHSGGLYQFDRVAVHHAEAEALARGDNFETVTWLSDSEVVRAPSPGWRARQFRVQAVQPTLILQDGDVINLGDRQLTVMHMPGHSRGSICLHDKDRKILFSGDVVYDGSLIDWLPYSRISDYVGTCERLIELVDRGLVEKVLPGHFNTFGAERLFRLASNYISKAGICHKVSTFAMRSLASLALRVTNSRTSP”: the “soluble on expression in E. coli” value is recorded as “not soluble”.

For “MSALKWTNIGATSGAKSCQRWLFYAYDRIRRTVVPHVFGERTLATLERLLSLLSAFEVVVWMTDGWPLYESRLKGKLHVISKRYTQRIERHNLNLRQHLARLGRKLLSFSKSVELHDKVIGHYLNIKHYQLEHHHHHH”, the “soluble on expression in E. coli” value was “not soluble”. On to “MSALTLKGTSYKMCTDKMSFVKNPTDTGHGTVVMQVKVPKGAPCKIPVIVADDLTAAINKGILVTVNPIASTNDDEVLIEVNPPFGDSYIIVGTGDSRLTYQWHKEGSSIGK”, for which the “soluble on expression in E. coli” value is on record as “soluble”. Take “MSAQDFLVELGTEELPPKALASLGDAFLAGIEKGLQAAGLNYTGKQVYAAPRRLAVLIRQLDVQQPDRSINIDGPPLQAAFNAEGEPTQAALGFAKKCGVELAEIDQSGPKLRFSQHIPGKATVGLLPTIVEDSLNDLPIPKRMRWAASREEFVRPTQWLVMLLGDQVVDCTILSQKAGRESRGHRFHHPENVLITTPANYVEDLRKAYVLADFAERRELISKRTAELAMQQEGTAIVPPALLDEVTALVEWPVPLVCSFEERFLEVPQEALITTMQDNQKYFCLLDSEGKLLPRFITVANVESRDPKQIVQGNEKVVRPRLTDAEFFFKQDKKQPLETFNERLKNVVFQAQLGTVYDKAERVSRLAAFIAPLIGGDAQRAGRAGLLSKCDLATEMVGEFPEMQGVAGYYYALNDGEPEDVALALNEQYMPRGAGAELPQTLTGAAVAIADKLDTLVGIFGIGMLPTGSKDPYALRRAALGVLRILIEKQLDLDLTGAVEFAVKQFGAKIKAPGLAEQVLEFIFDRLRARYEDEGIDVATYLSVRALQ”: the “soluble on expression in E. coli” value was “not soluble”.

As to “MSAQVSLELHHRISQFLFHEASLLDDWKFRDWLAQLDEEIRYTMRTTVNAQTRDRRKGVQPPTTWIFNDTKDQLERRIARLETGMAWAEEPPSRTRHLISNCQISETDIPNVFAVRVNYLLYRAQKERDETFYVGTRFDKVRRLEDDNWRLLERDIVLDQAVITSHNLSVLF”, the “soluble on expression in E. coli” value is “soluble”.

In the case of “MSASPLQITEKSPEMSQTPPKDENNELEFGIPTKRSRSGRPKKICAFSSFKCYEERDIEFFIHQVSDNQIIWDRRNSLNFDGNLVHATFDKIEICCQFLARKNGENASRLWTELASEYKREKARIEQLPSGIYSEEFEIRFPFMQQMWFLEIEASELKEADSNSLEETIVNFARQKSINDAPSPSSSLSAPIEHLNSSINRLIAVIDKKSEDTTKRQIPAKYSDIVEHLIGFLDKTPRERQMEVKCKIYNFLDTIN”, the “soluble on expression in E. coli” value is “not soluble”. For the sequence “MSAVALPRVSGGHDEHGHLEEFRTDPIGLMQRVRDELGDVGTFQLAGKQVVLLSGSHANEFFFRAGDDDLDQAKAYPFMTPIFGEAVVFDASPERRKEMLHNAALRGEQMKGHAATIEDQVRRMIADWGEAGEIDLLDFFAELTIYTSSACLIGKKFRDQLDGRFAKLYHELERGTDPLAYVDPYLPIESFRRRDEARNGLVALVADIMNGRIANPPTDKSDRDMLDVLIAVKAETGTPRFSADEITGMFISMMFAGHHTSSGTASWTLIELMRHRDAYAAVIDELDELYGDGRSVSFHALRQIPQLENVLKETLRLHPPLIILMRVAKGEFEVQGHRIHEGDLVAASPAISNRIPEDFPDPHDFVPARYEQPRQEDLLNRWTWIPFGAGRHRCVGAAFAIMQIKAIFSVLLREYEFEMAQPPESYRNDHSKMVVQLAQPAAVRYRRRTGVHHHH”, the “soluble on expression in E. coli” value was “soluble”. Then “MSCEIVVYPAQDSTTTNIQDISIKNYFKKYGEISHFEAFNDPNSALPLHVYLIKYASSDGKINDAAKAAFSAVRKHESSGCFIMGFKFEVILNKHSILNNIISKFVEINVKKLQKLQENLKKAKEKEAENHHHHHH”, with “soluble”.

In the case of “MSCKPNILVLFYGYGSIVELAKEIGKGAEEAGAEVKIRRVRETLPPEFQSRIPFDKVKDIPEVTLDDMRWADGFAIGSPTRYGNMAGGLKTFLDTTAILWKDNVLYGKPVTFFTEASTVHGGHETTILTMSTYAYHFGMIIVPIGYGIPELFQTTTGGGPYGATHLGSKEELDEMERKIARFQGKRITEVAKAIKCCNK”, the “soluble on expression in E. coli” value is on record as “soluble”.

With “MSCYYYCKYCKEYKNKHHDCCKNTSKCHDNKDNLVRASAFRARNTVNQNVPANTFVKVLFQNEQFDLANEYNPATSIFMPKTKGVYSIIGTIGFFPNDPTLNYRARVEIRVNGNAAIAIDNDFFGPISFGNVVSVSTIVQLNAGDEVEIYAQSSIDGVLSPLEDGAHFEAARFPSPIKLEHHHHHH”, the “soluble on expression in E. coli” value was “not soluble”.
